Where two headings read alike, the source gives them in different places.
B1: DR4B98 (antibody, human IgG2, kappa, V domains shown)
VH: QVQLVQSGAEVKKPGSSVKVSCKASGGTFKSYYIHWVRQAPGQGLEWMGGIAPIYGTAYYAQKFQGRVTITADESTSTAYMELSSLRSEDTAVYYCARDASWARAYGFDYWGQGTLVTVSS
VL: EIVLTQSPATLSLSPGERATLSCRASQSVSSYLAWYQQKPGQAPRLLIYDASNRATGIPARFSGSGSGTDFTLTISSLEPEDFAVYYCQQRSNWPLTFGQGTKVEIKR
notes: also called VH DR4H50 / VL PH9L3
B2: DR4B127 (antibody, human IgG2, kappa, V domains shown)
VH: QVQLVQSGAEVKKPGSSVKVSCKASGGTFKSYYIHWVRQAPGQGLEWMGGIRPISGNAEYAQKFQGRVTITADESTSTAYMELSSLRSEDTAVYYCARDASYYRNYGFDYWGQGTLVTVSS
VL: EIVLTQSPATLSLSPGERATLSCRASQSVSSYLAWYQQKPGQAPRLLIYDASNRATGIPARFSGSGSGTDFTLTISSLEPEDFAVYYCQQRSNWPLTFGQGTKVEIKR
notes: also called VH DR4H7 / VL PH9L3
B3: DR4B4 (antibody, V domains shown)
VH: QVQLKESGPGLVAPSQSLSITCTISGFSLTSYGVHWVRQPPGKGLEWLVVIWSDGSTTYNSALKSRLSISKDNSKSQVFLKMNSLQTDDTAIYYCASHYGSTLAFASWGHGTLVTVSA
VL: DIQMTQSPASLSASVGETVTIICRASVNIYSYLAWYQQKQGKSPQLLVYNAKILAEGVPSRFSGSGSGTQFSLKINSLQPEDFGSYYCQHHYGPFTFGSGTKLEIK
notes: also called Lym-1 re-engineered as IgG2sigma
B4: DR4B5 (antibody, V domains shown)
VH: QVQLQESGPGLVKPSETLSLTCTVSGFSLTNYGVHWVRQSPGKGLEWIGVKWSGGSTEYNAAFISRLTISKDTSKNQVSLKLNSLTAADTAVYYCARNDRYAMDYWGQGTLVTVSS
VL: DIQMTQSPSSLSASVGDRVTITCRASENIYSYLAWYQQKPGKAPKLLVSNAKTLAEGVPSRFSGSGSGKQFTLTISSLQPEDFATYYCQHHYGNSYPFGQGTKLEIK
notes: also called apolizumab (1D10) re-engineered as IgG2sigma
B5: DR4B6 (antibody, V domains shown)
VH: QIQLVQSGPELKKPGETVKISCKASGFTFTNYGMNWVKQAPGKGLKWMGWINTYTREPTYADDFKGRFAFSLETSASTAYLQINNLKNEDTAKYFCARDITAVVPTGFDYWGQGTTLTVSS
VL: DIQMTQSPASLSVSVGETVTITCRASENIYSNLAWYRQKQGKSPQLLVFAASNLADGVPSRFSGSGSGTQYSLKINSLQSEDFGDYYCQHFWTTPWAFGGGTNLEIK
notes: also called L243 re-engineered as IgG2sigma
B6: DR4B30 (antibody, human IgG2, kappa, V domains shown)
VH: EVQLVQSGAEVKKPGESLKISCKGSGYSFTSDWIGWVRQMPGKGLEWMGIIRPGDSDTYYSPSFQGQVTISADKSISTAYLQWSSLKASDTAVYYCARESYYYVGVRYRPSYYFDYWGQGTLVTVSS
VL: EIVLTQSPATLSLSPGERATLSCRASQSVSSYLAWYQQKPGQAPRLLIYDASNRATGIPARFSGSGSGTDFTLTISSLEPEDFAVYYCQQRSNWPLTFGQGTKVEIKR
notes: also called VH DR4H39 / VL PH9L3
B7: DR4B78 (antibody, human IgG2, kappa, V domains shown)
VH: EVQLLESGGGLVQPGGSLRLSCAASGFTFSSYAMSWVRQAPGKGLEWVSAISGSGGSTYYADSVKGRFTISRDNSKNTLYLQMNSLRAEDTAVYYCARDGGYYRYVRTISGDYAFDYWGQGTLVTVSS
VL: EIVLTQSPATLSLSPGERATLSCRASQSVSSYLAWYQQKPGQAPRLLIYDASNRATGIPARFSGSGSGTDFTLTISSLEPEDFAVYYCQQRSNWPLTFGQGTKVEIKR
notes: also called VH DR4H62 / VL PH9L3
B8: DR4B22 (antibody, human IgG2, kappa, V domains shown)
VH: EVQLLESGGGLVQPGGSLRLSCAASGFTFSSYAMNWVRQAPGKGLEWVSAISGSGGYTNYADSVKGRFTISRDNSKNTLYLQMNSLRAEDTAVYYCARDGGYYRYVYRYPGDYAFGYWGQGTLVTVSS
VL: EIVLTQSPATLSLSPGERATLSCRASQSVSSYLAWYQQKPGQAPRLLIYDASNRATGIPARFSGSGSGTDFTLTISSLEPEDFAVYYCQQRSNWPLTFGQGTKVEIKR
notes: also called VH DR4H16 / VL PH9L3
B9: DR4B38 (antibody, human IgG2, kappa, V domains shown)
VH: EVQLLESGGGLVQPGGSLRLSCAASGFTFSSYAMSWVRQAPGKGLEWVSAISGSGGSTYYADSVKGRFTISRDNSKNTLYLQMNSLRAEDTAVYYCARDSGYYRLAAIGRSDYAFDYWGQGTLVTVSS
VL: EIVLTQSPATLSLSPGERATLSCRASQSVSSYLAWYQQKPGQAPRLLIYDASNRATGIPARFSGSGSGTDFTLTISSLEPEDFAVYYCQQRSNWPLTFGQGTKVEIKR
notes: also called VH DR4H56 / VL PH9L3
B10: DR4B70 (antibody, human IgG2, kappa, V domains shown)
VH: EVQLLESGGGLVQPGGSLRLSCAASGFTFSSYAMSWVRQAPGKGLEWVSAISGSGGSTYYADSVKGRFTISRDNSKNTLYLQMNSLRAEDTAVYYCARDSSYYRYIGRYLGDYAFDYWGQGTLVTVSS
VL: EIVLTQSPATLSLSPGERATLSCRASQSVSSYLAWYQQKPGQAPRLLIYDASNRATGIPARFSGSGSGTDFTLTISSLEPEDFAVYYCQQRSNWPLTFGQGTKVEIKR
notes: also called VH DR4H29 / VL PH9L3
B11: DR4B33 (antibody, human IgG2, kappa, V domains shown)
VH: EVQLVQSGAEVKKPGESLKISCKGSGYSFDSAYINWVRQMPGKGLEWMGIIRPGDSRTRYSPSFQGQVTISADKSISTAYLQWSSLKASDTAVYYCARDGYYFVGSIIYYGMDVWGQGTLVTVSS
VL: not shown
notes: also called VH DR4H58 / VL PH9L4

Key:
[1] = molecular target: T1, DR4G93: Human HLA-DRA1*01:02/DRB1*01:01 ECD with hemagglutinin peptide HA_304-318 (human); test: MSD ECL; antigen coated; mAb 0.2 µg/ml
T1 construct: also called HLA-DR1 with HA_304-318
Description: (§1) Select generated antibodies were characterized for their binding to soluble HLA-DR, HLA-DQ or HLA-DP antigens with various peptides attached to the N-terminus of the beta chains. […] The soluble antigens of DR, DP and DQ were coated on MSD standard plates (Meso Scale Discovery, Cat. No. L15XA-3) at 5 μg/ml at 4° C. overnight. […] Binding to DR antigens was tested with four antibody concentrations ranging from 0.04-5 μg/ml. Binding to DP and DQ antigens was tested with one concentration at 5 μg/ml. After three washes, SulfoTag anti-human/NHP Kappa secondary antibody (Meso Scale Discovery, Cat. No. D20TF-6) was added and incubated for 1 hour. After another three washes, the plates were read under MSD reader (Meso Scale Discovery), and electrochemiluminescence (ECL) was measured.

[2] = molecular target: T2, DR4G89: Human HLA-DRA1*01:02/DRB1*04:01 ECD with hemagglutinin peptide HA_304-318 (human); test: MSD ECL; antigen coated; mAb 0.2 µg/ml
T2 construct: also called DRG89; HLA-DR4 with HA_304-318
Description: as §1

[3] = molecular target: T3, DR4G104: Human HLA-DRA1*01:02/DRB1*04:02 ECD with hemagglutinin peptide HA_304-318 (human); test: MSD ECL; antigen coated; protocol of Example 3
T3 construct: also called DRB1*04:02 HA
Description: (§2) The soluble antigens of DR, DP and DQ were coated on MSD standard plates (Meso Scale Discovery, Cat. No. L15XA-3) at 5 μg/ml at 4° C. overnight. […] Binding to DR antigens was tested with four antibody concentrations ranging from 0.04-5 μg/ml. Binding to DP and DQ antigens was tested with one concentration at 5 μg/ml. After three washes, SulfoTag anti-human/NHP Kappa secondary antibody (Meso Scale Discovery, Cat. No. D20TF-6) was added and incubated for 1 hour. After another three washes, the plates were read under MSD reader (Meso Scale Discovery), and electrochemiluminescence (ECL) was measured.
(§3) Select antibodies were further characterized for their binding to soluble HLA-DR, HLA-DQ and HLA-DP antigens in complex with various peptides which were covalently attached to the N-terminus of the beta chains.

[4] = molecular target: T4, DR4G119: Human HLA-DRA1*01:02/DRB1*10:01 ECD with hemagglutinin peptide HA_304-318 (human); test: MSD ECL; antigen coated; protocol of Example 3
T4 construct: also called DRB1*10:01 HA
Description: as §2, §3

[5] = molecular target: T5, DR4G103: Human HLA-DRA1*01:02/DRB1*15:01 ECD with hemagglutinin peptide HA_304-318 (human); test: MSD ECL; antigen coated; protocol of Example 3;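 on ECL signal: antibodies tested at 0.04–5 µg/ml on plate-coated soluble HLA-DR carrying peptide on the beta chain N-terminus, bound antibody detected by SulfoTag anti-human kappa secondary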
T5 construct: also called DRB1*15:01 HA
Description: as §1, §3

[6] = molecular target: T2, DR4G89: Human HLA-DRA1*01:02/DRB1*04:01 …; test: SPR ProteOn XPR36; mAb amine-coupled, antigen as analyte; 25 °C
[7] = molecular target: T1, DR4G93: Human HLA-DRA1*01:02/DRB1*01:01 …; test: as above
[8] = molecular target: T3, DR4G104: Human …; test: MSD ECL; antigen coated
[9] = molecular target: T5, DR4G103: Human …; test: MSD ECL; antigen coated
[10] = molecular target: T1, DR4G93: Human HLA-DRA1*01:02/DRB1*01:01 …; test: MSD ECL; antigen coated; mAb 0.2 µg/ml; remark: listed apart in the source
[11] = molecular target: T2, DR4G89: Human HLA-DRA1*01:02/DRB1*04:01 …; test: MSD ECL; antigen coated; mAb 0.2 µg/ml; remark: listed apart in the source
[12] = molecular target: T1, DR4G93: Human HLA-DRA1*01:02/DRB1*01:01 …; test: MSD ECL; antigen coated
[13] = molecular target: T2, DR4G89: Human HLA-DRA1*01:02/DRB1*04:01 …; test: MSD ECL; antigen coated

Binder | ECL signal [1] [ECL] | ECL signal [2] [ECL] | ECL signal [3] [ECL] | ECL signal [4] [ECL] | ECL signal [5] [ECL] | ECL signal [10] [ECL] | ECL signal [11] [ECL] | further results
B1 | 140000 | 775000 | 421000 | 94700 | 34700 | – | – | –
B2 | 918000 | 1.03e+06 | 1.27e+06 | 1.24e+06 | 334000 | – | – | Kd [6]: 9.19 nM; koff [6]: 0.000155 s⁻¹; kon [6]: 16800 M⁻¹ s⁻¹; Kd [7]: 47.7 nM; koff [7]: 0.00092 s⁻¹; kon [7]: 19300 M⁻¹ s⁻¹
B3 | 888000 | 1.28e+06 | 451 | 572000 | 287 | – | – | binding result [8]: no binding; binding result [9]: no binding
B4 | 1.3e+06 | 1.26e+06 | 825 | 132000 | 329 | – | – | binding result [8]: no binding; binding result [9]: no binding
B5 | 1.32e+06 | 1.34e+06 | 415000 | 580000 | 142000 | – | – | –
B6 | 1.07e+06 | 1.13e+06 | – | – | – | 1.07e+06 | 1.13e+06 | –
B7 | – | – | – | – | – | 1.06e+06 | 979000 | –
B8 | – | – | – | – | – | 896000 | 1.01e+06 | –
B9 | – | – | – | – | – | 1.12e+06 | 1.22e+06 | –
B10 | – | – | – | – | – | 972000 | 888000 | –
B11 | – | – | – | – | – | – | – | binding result [12]: binds; binding result [13]: binds

Source: patent publication US20180355043A1 (Janssen / Centocor, published 2018)
